# Laboratory results published in the supplement of paper PMC10567573.
# B1: RAB40A (parent)
# chain: NWLGRPSKVLSLQDLCCRTIVSCT
# Variants of: B1
# Test: protein stability index of a GFP-peptide fusion (GPS, HEK-293T) (PSI 1-6); higher = more stable
# Settings: c terminus: a fixed tail appended
# 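Note: lentivirally expressed fusions sorted by FACS into six bins by GFP to DsRed ratio, PSI derived from sequencing read proportions per bin multiplied by bin number.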
row,Variant,protein stability index
1,NWAGRPSKVLSLQDLCCRTIVSCT [L3A],2.53
2,NWGGRPSKVLSLQDLCCRTIVSCT [L3G],2.69
3,NWYGRPSKVLSLQDLCCRTIVSCT [L3Y],2.51
4,NWIGRPSKVLSLQDLCCRTIVSCT [L3I],2.36
5,NWFGRPSKVLSLQDLCCRTIVSCT [L3F],2.28
6,NWMGRPSKVLSLQDLCCRTIVSCT [L3M],2.2
7,NWCGRPSKVLSLQDLCCRTIVSCT [L3C],2.39
8,NWWGRPSKVLSLQDLCCRTIVSCT [L3W],2.11
9,NWDGRPSKVLSLQDLCCRTIVSCT [L3D],2.62
10,NWKGRPSKVLSLQDLCCRTIVSCT [L3K],3.05
11,NWTGRPSKVLSLQDLCCRTIVSCT [L3T],2.95
12,NWNGRPSKVLSLQDLCCRTIVSCT [L3N],2.46
13,NWVGRPSKVLSLQDLCCRTIVSCT [L3V],2.26
14,NWHGRPSKVLSLQDLCCRTIVSCT [L3H],2.3
15,NWRGRPSKVLSLQDLCCRTIVSCT [L3R],2.56
16,NWPGRPSKVLSLQDLCCRTIVSCT [L3P],2.58
17,NWSGRPSKVLSLQDLCCRTIVSCT [L3S],2.64
18,NWEGRPSKVLSLQDLCCRTIVSCT [L3E],2.75
19,NWQGRPSKVLSLQDLCCRTIVSCT [L3Q],2.85
20,NSLGRPSKVLSLQDLCCRTIVSCT [W2S],2.96
21,NDLGRPSKVLSLQDLCCRTIVSCT [W2D],3.7
22,NVLGRPSKVLSLQDLCCRTIVSCT [W2V],2.71
23,NALGRPSKVLSLQDLCCRTIVSCT [W2A],3.05
24,NYLGRPSKVLSLQDLCCRTIVSCT [W2Y],2.68

row,Variant,protein stability index
1,NRLGRPSKVLSLQDLCCRTIVSCT [W2R],3
2,NCLGRPSKVLSLQDLCCRTIVSCT [W2C],2.71
3,NHLGRPSKVLSLQDLCCRTIVSCT [W2H],3.05
4,NLLGRPSKVLSLQDLCCRTIVSCT [W2L],2.68
5,NELGRPSKVLSLQDLCCRTIVSCT [W2E],3.18
6,NPLGRPSKVLSLQDLCCRTIVSCT [W2P],2.81
7,NTLGRPSKVLSLQDLCCRTIVSCT [W2T],3.08
8,NILGRPSKVLSLQDLCCRTIVSCT [W2I],3.01
9,NQLGRPSKVLSLQDLCCRTIVSCT [W2Q],3.14
10,NFLGRPSKVLSLQDLCCRTIVSCT [W2F],2.64
11,NNLGRPSKVLSLQDLCCRTIVSCT [W2N],3.23
12,NMLGRPSKVLSLQDLCCRTIVSCT [W2M],2.62
13,NGLGRPSKVLSLQDLCCRTIVSCT [W2G],3.23
14,NKLGRPSKVLSLQDLCCRTIVSCT [W2K],3.11
15,TWLGRPSKVLSLQDLCCRTIVSCT [N1T],2.16
16,LWLGRPSKVLSLQDLCCRTIVSCT [N1L],1.62
17,QWLGRPSKVLSLQDLCCRTIVSCT [N1Q],2.29
18,WWLGRPSKVLSLQDLCCRTIVSCT [N1W],2.22
19,KWLGRPSKVLSLQDLCCRTIVSCT [N1K],1.97
20,YWLGRPSKVLSLQDLCCRTIVSCT [N1Y],1.83
21,FWLGRPSKVLSLQDLCCRTIVSCT [N1F],2.16
22,PWLGRPSKVLSLQDLCCRTIVSCT [N1P],2.35
23,HWLGRPSKVLSLQDLCCRTIVSCT [N1H],2.2
24,EWLGRPSKVLSLQDLCCRTIVSCT [N1E],2.6

row,Variant,protein stability index
1,SWLGRPSKVLSLQDLCCRTIVSCT [N1S],2.36
2,VWLGRPSKVLSLQDLCCRTIVSCT [N1V],2.15
3,GWLGRPSKVLSLQDLCCRTIVSCT [N1G],3.03
4,RWLGRPSKVLSLQDLCCRTIVSCT [N1R],2.21
5,IWLGRPSKVLSLQDLCCRTIVSCT [N1I],1.84
6,MWLGRPSKVLSLQDLCCRTIVSCT [N1M],1.75
7,NWLGRPSKVHSLQDLCCRTIVSCT [L10H],2.07
8,NWLGRPSKVVSLQDLCCRTIVSCT [L10V],2.09
9,NWLGRPSKVASLQDLCCRTIVSCT [L10A],2.52
10,NWLGRPSKVFSLQDLCCRTIVSCT [L10F],2.02
11,NWLGRPSKVRSLQDLCCRTIVSCT [L10R],2.6
12,NWLGRPSKVESLQDLCCRTIVSCT [L10E],2.15
13,NWLGRPSKVYSLQDLCCRTIVSCT [L10Y],2.43
14,NWLGRPSKVKSLQDLCCRTIVSCT [L10K],2.35
15,NWLGRPSKVDSLQDLCCRTIVSCT [L10D],2.31
16,NWLGRPSKVNSLQDLCCRTIVSCT [L10N],2.22
17,NWLGRPSKVTSLQDLCCRTIVSCT [L10T],2.49
18,NWLGRPSKVISLQDLCCRTIVSCT [L10I],2.41
19,NWLGRPSKVMSLQDLCCRTIVSCT [L10M],2.56
20,NWLGRPSKVWSLQDLCCRTIVSCT [L10W],1.93
21,NWLGRPSKVGSLQDLCCRTIVSCT [L10G],2.64
22,NWLGRPSKVSSLQDLCCRTIVSCT [L10S],2.57
23,NWLGRPSKVQSLQDLCCRTIVSCT [L10Q],2.24
24,NWLGRPSKVCSLQDLCCRTIVSCT [L10C],2.04

row,Variant,protein stability index
1,NWLGRPSKVPSLQDLCCRTIVSCT [L10P],2.62
2,NWLGRPSEVLSLQDLCCRTIVSCT [K8E],2.26
3,NWLGRPSVVLSLQDLCCRTIVSCT [K8V],1.89
4,NWLGRPSYVLSLQDLCCRTIVSCT [K8Y],1.96
5,NWLGRPSWVLSLQDLCCRTIVSCT [K8W],2.33
6,NWLGRPSTVLSLQDLCCRTIVSCT [K8T],1.88
7,NWLGRPSIVLSLQDLCCRTIVSCT [K8I],2.11
8,NWLGRPSNVLSLQDLCCRTIVSCT [K8N],2.52
9,NWLGRPSAVLSLQDLCCRTIVSCT [K8A],1.98
10,NWLGRPSSVLSLQDLCCRTIVSCT [K8S],2.31
11,NWLGRPSDVLSLQDLCCRTIVSCT [K8D],2.1
12,NWLGRPSHVLSLQDLCCRTIVSCT [K8H],2.16
13,NWLGRPSCVLSLQDLCCRTIVSCT [K8C],2.08
14,NWLGRPSMVLSLQDLCCRTIVSCT [K8M],1.75
15,NWLGRPSQVLSLQDLCCRTIVSCT [K8Q],1.97
16,NWLGRPSPVLSLQDLCCRTIVSCT [K8P],2.29
17,NWLGRPSRVLSLQDLCCRTIVSCT [K8R],2.65
18,NWLGRPSLVLSLQDLCCRTIVSCT [K8L],2
19,NWLGRPSGVLSLQDLCCRTIVSCT [K8G],2.01
20,NWLGRPSFVLSLQDLCCRTIVSCT [K8F],2.35
21,NWLGCPSKVLSLQDLCCRTIVSCT [R5C],2.76
22,NWLGPPSKVLSLQDLCCRTIVSCT [R5P],3.14
